Measurements reported in patent publication US20200055896A1, “SUBSTRATES RECOGNIZED BY FIBROBLAST ACTIVATION PROTEIN (FAP) AND METHODS OF USING THE SAME” (GENENTECH, INC., priority 2017, published 2020).
No end group written: not given here.

Tests used:
[1] = biological target: T1, FAP endopeptidase activity in the plasma (Mus musculus, UniProt P97321); assay: FRET-quench assay: probe cleavage in mouse plasma (Fap WT, heterozygous, KO); type: biochemical, mice
T1 construct: the extracellular domain encoding the active enzyme can be shed from the cell surface; from tissue; host or cells: mouse plasma (C57BL/6 background; Fap +/+, +/-, -/-)
T1 sequence (P97321 24-761 limits assumed): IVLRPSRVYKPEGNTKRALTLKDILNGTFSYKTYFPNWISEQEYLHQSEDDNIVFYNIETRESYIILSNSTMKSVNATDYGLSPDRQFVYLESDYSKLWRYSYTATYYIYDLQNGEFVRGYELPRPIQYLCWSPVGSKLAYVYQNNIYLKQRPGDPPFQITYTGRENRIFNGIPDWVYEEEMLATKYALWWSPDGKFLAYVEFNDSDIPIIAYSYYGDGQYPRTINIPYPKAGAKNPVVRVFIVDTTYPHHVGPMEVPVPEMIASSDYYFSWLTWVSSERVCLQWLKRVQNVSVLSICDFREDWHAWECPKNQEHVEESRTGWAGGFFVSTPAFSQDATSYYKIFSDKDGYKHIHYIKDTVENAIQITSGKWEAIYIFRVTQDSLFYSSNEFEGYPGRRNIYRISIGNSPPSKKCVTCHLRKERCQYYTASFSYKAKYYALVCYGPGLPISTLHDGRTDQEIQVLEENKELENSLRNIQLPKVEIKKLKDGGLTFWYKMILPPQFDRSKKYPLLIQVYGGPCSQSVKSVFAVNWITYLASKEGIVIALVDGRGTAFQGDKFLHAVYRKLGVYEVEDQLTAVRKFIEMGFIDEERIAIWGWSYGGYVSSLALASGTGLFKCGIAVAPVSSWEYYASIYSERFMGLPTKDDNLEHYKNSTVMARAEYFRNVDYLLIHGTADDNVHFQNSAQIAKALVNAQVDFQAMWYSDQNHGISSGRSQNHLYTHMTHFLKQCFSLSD
Procedure: (§1) Mouse plasma samples were prepared in K3-EDTA MiniCollect tubes (Greiner Bio-One, 450475) and frozen immediately at −80° C. prior to analysis. Human serum samples were obtained from healthy donors or purchased from Discovery Life Sciences, Inc. (Los Osos, Calif.).
(§2) Peptides of the region flanking the C-terminal human FGF21 cleavage site (VGPSQG) or a variant with D-alanine at P2 (VaPSQG) were synthesized (Anaspec, Inc.), containing an amine-terminal donor (HyLite Fluor 488 or Cy5.5 for aP NIRF) and a dark quencher-acceptor (QXL 520 or QSY21 for aP NIRF) conjugated to a supplementary C-terminal lysine. ANPFAP (Bioconjugate Chem 23:1704-11) and aP NIRF were synthesized by CPC Scientific (Sunnyvale, Calif.). Assays were conducted at 37° C. in 50 mM HEPES (pH 7.2), 150 mM NaCl, 1 mM EDTA, 0.1 mg/ml BSA. The excitation/emission wavelengths of cleaved peptide are 490/520 nm or 675/695 nm for ANPFAP and aP NIRF. Fluorescence was monitored on a Tecan M1000 Pro plate reader in kinetic mode. Except where indicated otherwise, measurements of serum or plasma FAP activity were performed with the peptide substrate concentration at 6 μM and a 10-fold dilution of serum or plasma in assay buffer.

[2] = tested on: human S9 and S28 peptidases; assay: aP cleavage by a panel of recombinant human prolyl peptidases; type: biochemical; details: each recombinant peptidase at 2.5 μg/ml
Description: Human prolyl oligopeptidase (PREP, 4308-SE), DPPIV (1180-SE), DPP9 (5419-SE), and DPPII/DPP7 (3438-SE) proteins were purchased from R&D Systems. Human DPP8 (BML-SE527) protein was purchased from Enzo Life Sciences. N-terminal octa-His-tagged human and mouse FAP proteins containing the extracellular domain (residues L26-D760 and L26-D761, respectively) were purified from the conditioned media of transiently-transfected CHO cells, by immobilized metal affinity chromatography (IMAC), followed by size exclusion chromatography (SEC).
as §2, with “Except where indicated otherwise, measurements of serum or plasma FAP activity were performed with the peptide substrate concentration at 6 μM and a 10-fold dilution of serum or plasma in assay buffer.” left out

[3] = tested on: human or mouse recombinant FAP; assay: Michaelis-Menten kinetics of GP and aP cleavage by recombinant FAP; type: biochemical; details: corrected for active enzyme concentration
Procedure: Michaelis-Menten kinetic measurements were carried out using 5 nM human or mouse recombinant FAP, with a series of peptide substrate titrations. Initial rate of substrate hydrolysis was determined using the Magellan software on a Tecan M1000 Pro plate reader and kinetic parameters were modeled using nonlinear regression analysis with GraphPad Prism software. Standard error was calculated from three experimental replicates.
As described by Copeland ((2000) Enzymes: a practical introduction to structure, mechanism, and data analysis, 2nd ed., J. Wiley, New York) the active enzyme concentration was determined from the x-intercept.

FAP = biological target: T2, FAP (Homo sapiens, UniProt Q12884); assay: aP cleavage in anti-FAP or control IgG-immunodepleted human serum; type: biochemical; details: after FAP immunodepletion; serum diluted 2.5-fold
T2 construct: the extracellular domain encoding the active enzyme can be shed from the cell surface; tissue Discovery Life Sciences, Inc. (part of the samples); host or cells: human serum (healthy donors, cirrhosis patients)
T2 sequence (Q12884 24-760 limits assumed): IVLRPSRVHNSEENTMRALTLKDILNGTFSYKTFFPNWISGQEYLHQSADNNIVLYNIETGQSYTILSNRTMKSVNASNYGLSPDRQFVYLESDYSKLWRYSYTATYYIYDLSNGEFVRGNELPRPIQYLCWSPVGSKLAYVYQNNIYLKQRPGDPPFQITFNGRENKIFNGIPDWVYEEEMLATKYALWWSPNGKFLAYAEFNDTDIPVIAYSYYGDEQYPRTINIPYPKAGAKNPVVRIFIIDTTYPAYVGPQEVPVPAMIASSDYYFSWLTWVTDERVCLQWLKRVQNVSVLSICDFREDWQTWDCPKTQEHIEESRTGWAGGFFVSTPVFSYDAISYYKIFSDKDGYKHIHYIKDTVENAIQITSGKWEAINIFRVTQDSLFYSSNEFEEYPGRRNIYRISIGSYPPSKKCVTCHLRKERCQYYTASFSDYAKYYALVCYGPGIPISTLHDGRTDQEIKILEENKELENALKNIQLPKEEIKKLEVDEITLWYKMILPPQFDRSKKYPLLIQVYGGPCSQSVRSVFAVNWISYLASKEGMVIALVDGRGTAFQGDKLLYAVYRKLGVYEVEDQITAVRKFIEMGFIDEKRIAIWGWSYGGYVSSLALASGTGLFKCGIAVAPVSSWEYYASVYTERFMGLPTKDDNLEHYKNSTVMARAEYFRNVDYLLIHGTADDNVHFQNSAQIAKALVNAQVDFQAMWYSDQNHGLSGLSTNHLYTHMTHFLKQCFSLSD
Procedure: as §1, §2

Row | probe cleavage signal in plasma ([1]; plasma from WT (Fap+/+) mice, 3 μM peptide) | probe cleavage activity in plasma ([1]; plasma from homozygous Fap KO mice, 3 μM peptide) | Substance | probe cleavage activity in plasma ([1]; plasma from Fap heterozygous mice, 3 μM peptide) | probe cleavage in plasma ([1]; Fap KO plasma, plasma diluted 10-fold) | probe cleavage signal in plasma ([1]; WT plasma, plasma diluted 10-fold) | probe cleavage signal in plasma ([1]; heterozygous plasma, plasma diluted 10-fold) | cleavage by human S9 and S28 peptidases [2] | Km relative to parental GP peptide [3] | decrease in kcat relative to GP peptide [3] | cleavage signal in human serum (FAP)
1 | strong signal | even lower, but significant activity | GP probe: human FGF21 cleavage-site peptide VGPSQG with amine-terminal HyLite Fluor 488 donor and QXL 520 quencher on supplementary C-terminal lysine ({HyLite Fluor 488}-VGPSQGK(QXL 520)) | approximately half the activity as that from WT mice | – | – | – | – | – | – | –
2 | – | – | aP probe: FGF21-based peptide VaPSQG (D-alanine at P2) with HyLite Fluor 488 donor and QXL 520 quencher | – | no cleavage | clear signal | intermediate | did not exhibit an ability to cleave | essentially unchanged | seven to eight-fold decrease | signal is lost
